Measurements as given in the nanobody polyreactivity screen of Harvey et al. (2022).

Test: yeast display, Sf9 membrane polyspecificity reagent, FACS + sequencing; frameworks hold sequencing errors
Method in brief: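 After 36–48 hours of galactose induction, yeast (Saccharomyces cerevisiae BJ5465) displaying a synthetic nanobody library were stained at 4 °C for 1 hour with 10% biotinylated, detergent-solubilized Sf9 membrane reagent. Streptavidin microbeads enriched the stained cells before FACS sorting into low and high (top ~1%) gates on anti-HA and streptavidin fluorescence. Each clone's polyreactivity label reflects its gate of origin.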

Row | Sequence | polyreactivity (PSR sort gate)
1 | QVQLVESGGGLVQAGGSLRLSCAASGGTSRSYAMGWYRQAPGKERELVAAISWRGGRTYYADSVKGRFTISRDNAKNTVYLQMNSLKPEDTAVYYCAARQYSQEPYDYWGQGTQVTVSS | high polyreactivity
2 | QVQLVESGGGLVQAGGSLRLSCAASGGTVKYYAMGWSRQSPGKERELVAAITWSGGSTYYADSVKGRFTISRDNAKNTVYLQMNSLKPEDTAVYYCNAAYSQISFNYWGQGTQVTVSS | high polyreactivity
3 | QVQLVESGGGLVQAGGSLRLSCAASGGTVYRNAMGWYRQAPGKERELVAAITRSGSTNYADSVKGRFTISRDNAKNTVYLQMNSLKPEDTAVYYCAAKFFRNTYSYGMDYWGQGTQVTVSS | high polyreactivity
4 | QVQLVESGGGLVQAGGSLRLSCAASGHIFFINAMGWYRQAPGKERELVAAIDWSGGSTYYADSVKGRFTISRDNAKNTDYLQMNSLKPADTAVYYCAAELLWDYILYYYWGQGTQVTVSS | high polyreactivity
5 | QVQLVESGGGLVQAGGSLRLSCAASGHIFFYYTMGWYRQAPGKERELVAGITIGGSTNYADSVKGRFTISRDNAKNTVYLQMNSLKPEDTAVYYCNVVKYVYIYTYWEYYYWGQGTQVTVSS | low polyreactivity
6 | QVQLVESGGGLVQAGGSLRLSCAASGHIFGRYAMGWYRQAPGKERELVAAITSGGRTNYADSVKGRFTISRDNAKNTVYLQMNSLKPEDTAVYYCAAYSWYFGSRYDYWGQGTQVTVSS | low polyreactivity
7 | QVQLVESGGGLVQAGGSLRLSCAASGHTFRYYAMGWYRQAPGKERELVAAITGGGGSTYYADSVKGRFTISRDNAKNTVYLQMNSLKPEDTAVYYFATGGVSGIVGGDYWGQGTQVTVSS | low polyreactivity
8 | QVQLVESGGGLVQAGGSLRLSCAASGIFRSNARGWYRQAPGKERELVAGISSGGGTNYADSVKGRFTISRDNAKNTVYLQMNSLKPEDTAVYYCAKERIYFDYWYVYTDLVYEYDYWGQGSQVTVSS | low polyreactivity
9 | QVQLVESGGGLVQAGGSLRLSCAASGIFSYYAMGWSRQAPGKERELVAAISWSGGSTYYADSVKGRFTISRDNAKNTVYLQKNSLKPEDTAVYYCNKAYLTSQPRLGYWGQGTQVTVSS | high polyreactivity
10 | QVQLVESGGGLVQAGGSLRLSCAASGIFWANTMEWYRQAPGKERELVAAISWSGDRTYYADSVKGRFTISRDNAKNTVYLQMNSLKPEDTAVYYCAAEGTGLQRYGYFGDDGYWGQGTQVTVSS | low polyreactivity
11 | QVQLVESGGGLVQAGGSLRLSCAASGIIFAANAMGWYRQAPGKELELVAAISKNGGITYYADSVKGRFTISRDNAKNTVYLQMNSLIPEDPAVYYCAARWRQTRRYYYWGQGSQVTVSS | high polyreactivity
12 | QVQLVESGGGLVQAGGSLRLSCAASGIIFAANAMGWYRQAPGKERELVAAISKNGGITYYADSVKGRFTISRDNAKNTVYLQMNSLKPEDTAVYYCAAKLSRRYYYWGQGTQVTVSS | high polyreactivity
13 | QVQLVESGGGLVQAGGSLRLSCAASGIIFADYDMGWYRQAPGKERELVAAITGSGGSTYYADSVKGRFTISRDNEKKTVYLQMNSLKPEDTAVYYCAADYAYSYGYHYGYWGQGTQVTVSS | high polyreactivity
14 | QVQLVESGGGLVQAGGSLRLSCAASGIIFAGNAMGWYRQAPGKERELLAVITSGGSTYYADSVKGRFTISRDNAKNTVFLQINSLIPEDTAVYYCNKVYYAYRVSLYSYGYWGQGTQVTVSS | high polyreactivity
15 | QVQLVESGGGLVQAGGSLRLSCAASGIIFAGNAMGWYRQAPGKERELVAVITSGGSTYYADSVKGRFTISRDNAKNTVYLQMNSLKPEDTAVYYCNKVYYAYRVSLYRYGYWGQGTQVTVSS | high polyreactivity
16 | QVQLVESGGGLVQAGGSLRLSCAASGIIFAGYAMGWYRQAPGKERELVADITSSGTSTYYADSVKGRFTISRDNAKNTVYLQMNSLKPEDTAVYYCAADDPRKNFTILDYLYDYWGQGTQVTVSS | low polyreactivity
17 | QVQLVESGGGLVQAGGSLRLSCAASGIIFAIYAMGWYRQAPGKERELVAAITWRGGSTYYADSVKGRFTISRDNAKNTVYLQMNSLKPEDTAVYYCAAVTKSLYGYDYWGQGSQVTVSS | low polyreactivity
18 | QVQLVESGGGLVQAGGSLRLSCAASGIIFAKYAMGWYRQPPGKERELVASISRPGGSTYYADSVKGRFTISRDNAKNTVYLQMNSLKPEDTAVYDCNAPGLRDYDAEYDYWGQGTQVTVSS | high polyreactivity
19 | QVQLVESGGGLVQAGGSLRLSCAASGIIFANNAMGWYRQAPGKERELVARISRSGGGTYYADSVKGRFTISRDNAKNTVYLQMNSLKPEDTAVYYCNAESSYYYGTAAYEYWGQGTQVTVSS | low polyreactivity
20 | QVQLVESGGGLVQAGGSLRLSCAASGIIFANYAMGWYRQAPGKERELVAAITYSGGGTYYADSVKGRFTISRDNAKNTVYLQMNSLKPEDTAVYYSAAEYFYRWYYFPYGYWGQGTQVTVSS | high polyreactivity
21 | QVQLVESGGGLVQAGGSLRLSCAASGIIFARNAMGWYRQAPGKERELVATISRNGGRTYYADSVKGRFTISRDNAKNTVYLQMNSLKPEDTAVYYCAAGFYLRAVWMDYWGQGTQVTVSS | high polyreactivity
22 | QVQLVESGGGLVQAGGSLRLSCAASGIIFASNAMGWYRQAPGKERELVAAISGSGGRTYYADSVKGRFTISRDTAKNTVYLQMNSLKPEDTAVYYCAAARANNYDYWGQGTQVTVSS | high polyreactivity

Row | Sequence | polyreactivity (PSR sort gate)
23 | QVQLVESGGGLVQAGGSLRLSCAASGIIFATYAMGWYRQAPGKERELVASISTGDSTNYADSVKGRFTISRDNAKNTVYLQMNSLKPEDTAVYYCNADSYPYYVYGSNDYWGQGTQVTVSS | low polyreactivity
24 | QVQLVESGGGLVQAGGSLRLSCAASGIIFAWYAMGWYRQAPGKERELVAAISGRGGRTYYADSVKGRFTISRDNAKNTVYLQMNSLKPEDTPVYYCNKDKSVIYDYWGQGTQVTVSS | high polyreactivity
25 | QVQLVESGGGLVQAGGSLRLSCAASGIIFAYAMGWYRQAPGKERELVAAISGRDGSTYYADSVKGRFTISRDNAKNTVYLQMNSLKPEDTAVYYCAKRISYLPVEMDYWGQGTQVTVSS | low polyreactivity
26 | QVQLVESGGGLVQAGGSLRLSCAASGIIFAYNAMGWYRQAPGKERELVAAISVIGGTTYYADSVKGRFTISRDNAKNTVYLQMNSLKPEDTAVYYCAVDSVQYGGGYERLHELYYWGQGTQVTVSS | low polyreactivity
27 | QVQLVESGGGLVQAGGSLRLSCAASGIIFAYNTMGWYRQAPGKARELVAAITYRGGRTYYADSVKGRFRISRDNAKNTFYLQMNSLKPEDTAVYYCAAGRGVYSYGYNYWGHGTQVTVSS | high polyreactivity
28 | QVQLVESGGGLVQAGGSLRLSCAASGIIFAYYAMGRSRQAPGKEMEFVAGISCSGSSTNYADSVKGRFTISRDNAKNTVYFQMNSLKPEDTAVYYCAARSRRYHRTKPKYDYWGQGTQVTVSS | high polyreactivity
29 | QVQLVESGGGLVQAGGSLRLSCAASGIIFAYYAMGWYRQAPGKERELVASISSGGTTKYADSVKGRFTISRDNAKNTVYLQMNSLKPEDTAVYYCAAEHRWRSWDMDYWGQGTQVTVSS | low polyreactivity
30 | QVQLVESGGGLVQAGGSLRLSCAASGIIFDDYAMGWYRQAPGKERELVAAITTSGGRTYYADSVKGRFTISRDNAKNTVYLQMNSLKPEDTAVYYCATRRGRAYRWMNYWGQGTQVTVSS | high polyreactivity
31 | QVQLVESGGGLVQAGGSLRLSCAASGIIFDEYAMGWYIQAPGKERELVAAITRDGGTNYADSVKGRFTISRDNAKNTVYLQMNSLKPEDTAVYYCAKRAYFYYGRYDYWGQGTQVTVSS | low polyreactivity
32 | QVQLVESGGGLVQAGGSLRLSCAASGIIFDFYAMGWYRPAPGKERELVAAITSSGGSTYYADSVKGRFTISRDNAKNTVYLQMNSLKPEDTAVYYCAAEYTIYGTDQRYNYWGQGTQVTVSS | low polyreactivity
33 | QVQLVESGGGLVQAGGSLRLSCAASGIIFDPYAMGWYRQAPGKERELVADIDNASSTYYADSVKGRFTISRDNAKNTVYLQMNSLKPEDTAVYYCAADLWYGGEYWGQGTQVTVSS | low polyreactivity
34 | QVQLVESGGGLVQAGGSLRLSCAASGIIFDQNVMGWYRQAPGKERELVAAIRQTGGSTYYADSVKGRFTISRDNAKNTVYLQMNSLKPEDTAVYYCNAKPPGWFWGGFSYNRYYYWGQGTQVTVSS | low polyreactivity
35 | QVQLVESGGGLVQAGGSLRLSCAASGIIFDTNAMGWYRPAPGKERELVAAITRSGGGTYYADSVKGRFSISRDNAKNTVYLQMNSLKPDDTAVYYCAARRQRDRYGYWGQGTQLTVSS | high polyreactivity
36 | QVQLVESGGGLVQAGGSLRLSCAASGIIFDWYDMGWYRQAPGKERELVATITSDDGTNYADSVKGRFTIARDNAKNTVYFQLNSLKPEDTAVYYCAKRLIPSLPILQKMDYWGQGTQVTVSS | low polyreactivity
37 | QVQLVESGGGLVQAGGSLRLSCAASGIIFDYYAMGWYRQAPGKERELVASISWSGGGTYYADSVKGRFTISRDNAKNTVYLEMNSLKPEDTAVYYCAADGSTVNAPRWSDPYDYWGQGTQVTVSS | low polyreactivity
38 | QVQLVESGGGLVQAGGSLRLSCAASGIIFEFYAMGWYRQAPGKEREFVAAISKNGGRTYYADSVKGRFTISRDNAKTSVYLQLNSLKPEDTAVYYCDARYRPQANKYYYWGQGTQVTVSS | high polyreactivity
39 | QVQLVESGGGLVQAGGSLRLSCAASGIIFENYAMGWYRQAPGKERELVAAISAGGAITYYADSVKGRFTISRDNAKNTVYLQMNSLKPEDTAVYYCNAKSYRHLLYIPYKYNYWGQGTQVTVSS | high polyreactivity
40 | QVQLVESGGGLVQAGGSLRLSCAASGIIFEPNAMGWYRQAPGKERELVAAIDSGGITYYADSVKGRFTISRDNAKNTVYLQMNSLKPEDTAVYYCAAEAVVVTKYRYWTYGLYDYWGQGTQVTVSS | high polyreactivity
41 | QVQLVESGGGLVQAGGSLRLSCAASGIIFEPYAMGWYRQAPGKERELVASIRWSDGSTFYADSVKGRFTISRDNAKNTVYLQMNSLKPEDTAVYYCNAVYEHRRVGWVTIDYGYWGQGSQVTVSS | low polyreactivity
42 | QVQLVESGGGLVQAGGSLRLSCAASGIIFESYSMGWYRQAPGKERELVAAISWDGGSTYYADSVKGRFTISRDNAKNTVYLQMNSLKPEDTAVYYCAAESYGIYDGYDYWGQGTQVTVSS | high polyreactivity
43 | QVQLVESGGGLVQAGGSLRLSCAASGIIFEYYAMGWYRQAPGKEWELVAAITDDGVVTYYGDSVKGRFTISRDNAKNTVYLQMNSLKPEDTAVYYCAAESYWTATYTYDYWGQGTQVTVSS | high polyreactivity
